Test results taken from patent US20230391845A1, “GLP-1, GIP AND GLUCAGON RECEPTOR TRIPLE AGONISTS” (priority 2020, published 2023).
Read-outs that look alike come from different tables or passages of the source. *1 amine or outer side, *2 acyl side, *3 side chain or, on linkers, in order; H or OH if unused. Where a SMILES comes first, the peptide text is derived from it. Where no end group is shown, it is not given here. Side-chain parts run from the residue outwards. [ ]: non-standard residue; d: D form. The star is where a group is joined. C20 diacid = O=C(O)CCCCCCCCCCCCCCCCCCC(=O)*; γGlu = O=C(O)[C@H](CCC(=O)[*:2])N[*:1]; εLys = N[C@@H](CCCCN[*:1])C(=O)[*:2]; Palmitoyl = CCCCCCCCCCCCCCCC(=O)*; Aib = CC(C)(N)C(=O)O

T1: human GIP receptor (Homo sapiens, UniProt P48546)
T1 construct: expressed in transfected cells; host or cells: BHK cells (parent line BHKTS13) containing CRE luciferase
T1 sequence (P48546 22-466): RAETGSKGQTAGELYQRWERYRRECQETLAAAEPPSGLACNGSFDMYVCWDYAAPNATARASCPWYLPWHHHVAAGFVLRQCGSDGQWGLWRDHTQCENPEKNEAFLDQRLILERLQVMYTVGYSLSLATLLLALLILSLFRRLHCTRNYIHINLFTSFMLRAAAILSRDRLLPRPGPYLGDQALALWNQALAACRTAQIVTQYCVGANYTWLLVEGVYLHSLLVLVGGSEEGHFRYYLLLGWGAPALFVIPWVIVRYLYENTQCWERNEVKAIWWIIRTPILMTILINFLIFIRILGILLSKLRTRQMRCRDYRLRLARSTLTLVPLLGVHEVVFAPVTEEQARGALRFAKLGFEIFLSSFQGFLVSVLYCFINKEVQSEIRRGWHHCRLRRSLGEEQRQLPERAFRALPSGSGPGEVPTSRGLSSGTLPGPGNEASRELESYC

T2: human glucose-dependent insulinotropic polypeptide receptor (human, UniProt P48546 22-466)
T2 sequence (looked up): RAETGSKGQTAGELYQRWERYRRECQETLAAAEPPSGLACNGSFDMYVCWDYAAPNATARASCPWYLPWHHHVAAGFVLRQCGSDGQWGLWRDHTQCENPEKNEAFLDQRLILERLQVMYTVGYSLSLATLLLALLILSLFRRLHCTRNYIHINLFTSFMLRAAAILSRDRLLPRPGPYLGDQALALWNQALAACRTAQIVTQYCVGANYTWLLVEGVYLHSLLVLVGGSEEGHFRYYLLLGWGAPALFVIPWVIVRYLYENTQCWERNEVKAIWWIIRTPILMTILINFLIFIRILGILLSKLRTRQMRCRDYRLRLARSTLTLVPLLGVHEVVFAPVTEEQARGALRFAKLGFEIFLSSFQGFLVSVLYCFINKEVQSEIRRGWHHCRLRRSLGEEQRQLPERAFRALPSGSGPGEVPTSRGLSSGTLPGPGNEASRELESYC


How the values were obtained:
human GIP receptor = molecular target: T1, human GIP receptor; assay: In vitro functional potency (CRE luciferase; whole cells), human GIPR; format: cell-based; conditions: BHK CRE luc2P hGIPR whole cells; Table 2; read-out: hGIPR CRE Luc EC50
[1] = Pharmacokinetic study in minipigs, i.v. administration; parameters: species or system Göttingen minipigs; conditions: female, Göttingen, minipig, in vivo, iv
Outline: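 Terminal half-life, reported as harmonic mean, came from non-compartmental fits of plasma levels measured by antibody assay or LCMS over up to 14 days. Dosing was i.v., typically 1.5-2 nmol/kg, through implanted caval catheters in fasted female Göttingen minipigs of 16-35 kg.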

human GLP-1 receptor = molecular target: T3, human GLP-1 receptor (Homo sapiens, UniProt P43220); assay: In vitro functional potency (CRE luciferase; whole cells), human GLP-1R; format: cell-based; conditions: BHK CRE luc2P hGLP-1R whole cells; Table 2; read-out: hGLP-1R CRE Luc EC50
T3 construct: expressed in transfected cells; host or cells: BHK cells (parent line BHKTS13) containing CRE luciferase

[2] = molecular target: T4, human glucagon-like peptide 1 receptor (human, UniProt P43220 24-463); assay: cell-based or functional assay
[3] = molecular target: T2, human glucose-dependent insulinotropic …; assay: cell-based or functional assay
human glucagon receptor [4] = molecular target: T5, human glucagon receptor (human, UniProt P47871 26-477); assay: cell-based or functional assay
[5] = molecular target: T4, human glucagon-like peptide 1 receptor; assay: cell-based or functional assay; remark: listed apart in the source
[6] = molecular target: T2, human glucose-dependent insulinotropic …; assay: cell-based or functional assay; remark: listed apart in the source
human glucagon receptor [7] = molecular target: T5, human glucagon receptor; assay: cell-based or functional assay; remark: listed apart in the source

T5 sequence (P47871 26-477): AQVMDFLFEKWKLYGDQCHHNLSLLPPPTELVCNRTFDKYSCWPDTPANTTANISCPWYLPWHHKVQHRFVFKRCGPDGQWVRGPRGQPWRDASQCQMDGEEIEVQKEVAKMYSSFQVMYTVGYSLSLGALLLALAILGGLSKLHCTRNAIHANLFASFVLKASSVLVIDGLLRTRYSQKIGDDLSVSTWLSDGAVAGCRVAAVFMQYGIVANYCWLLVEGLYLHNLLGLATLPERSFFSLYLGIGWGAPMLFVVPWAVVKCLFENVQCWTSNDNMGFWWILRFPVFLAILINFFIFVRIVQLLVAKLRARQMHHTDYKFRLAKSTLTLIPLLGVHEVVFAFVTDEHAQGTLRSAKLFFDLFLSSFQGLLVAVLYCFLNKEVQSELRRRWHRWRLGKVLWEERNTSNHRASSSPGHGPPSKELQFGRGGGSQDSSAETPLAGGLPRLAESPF
T3 sequence (P43220 24-463): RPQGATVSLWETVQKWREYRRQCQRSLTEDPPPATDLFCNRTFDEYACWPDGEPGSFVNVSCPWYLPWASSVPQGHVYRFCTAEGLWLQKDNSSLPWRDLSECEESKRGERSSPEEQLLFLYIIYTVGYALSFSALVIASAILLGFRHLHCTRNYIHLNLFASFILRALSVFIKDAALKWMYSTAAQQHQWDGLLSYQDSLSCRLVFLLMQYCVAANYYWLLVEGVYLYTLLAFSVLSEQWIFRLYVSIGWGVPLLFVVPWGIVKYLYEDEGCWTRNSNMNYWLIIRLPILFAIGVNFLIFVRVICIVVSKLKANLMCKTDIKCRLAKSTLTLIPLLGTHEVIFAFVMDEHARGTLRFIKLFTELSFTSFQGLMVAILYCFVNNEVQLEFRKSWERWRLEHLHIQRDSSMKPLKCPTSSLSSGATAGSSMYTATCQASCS

Molecule	EC50 (human GIP receptor) [pM]	half-life [1] [h]	EC50 (human GLP-1 receptor) [pM]	hGLP-1R CRE Luc EC50 (pM) [2] [pM]	hGIPR CRE Luc EC50 (pM) [3] [pM]	hGcgR CRE Luc EC50 (pM) (human glucagon receptor [4])	hGLP-1R CRE Luc EC50 (pM) [5] [pM]	hGIPR CRE Luc EC50 (pM) [6] [pM]	hGcgR CRE Luc EC50 (pM) (human glucagon receptor [7])
CC[C@H](C)[C@H](NC(=O)[C@H](CO)NC(=O)[C@H](Cc1ccc(O)cc1)NC(=O)[C@H](CC(=O)O)NC(=O)[C@H](CO)NC(=O)[C@@H](NC(=O)[C@H](Cc1ccccc1)NC(=O)[C@@H](NC(=O)CNC(=O)[C@H](Cc1c[nH]cn1)NC(=O)C(C)(C)NC(=O)[C@@H](N)Cc1c[nH]cn1)[C@@H](C)O)[C@@H](C)O)C(=O)N[C@@H](Cc1ccc(O)cc1)C(=O)N[C@@H](CC(C)C)C(=O)N[C@@H](CCC(=O)O)C(=O)N[C@@H](CCCCNC(=O)[C@@H](N)CCCCNC(=O)[C@@H](N)CCCCNC(=O)CC[C@H](NC(=O)CCCCCCCCCCCCCCCCCCC(=O)O)C(=O)O)C(=O)N[C@@H](CCC(N)=O)C(=O)N[C@@H](Cc1ccc(O)cc1)C(=O)N[C@@H](C)C(=O)NC(C)(C)C(=O)N[C@@H](CCC(=O)O)C(=O)N[C@@H](Cc1ccccc1)C(=O)N[C@H](C(=O)N[C@@H](CCC(N)=O)C(=O)N[C@@H](Cc1c[nH]c2ccccc12)C(=O)N[C@@H](CC(C)C)C(=O)N[C@@H](CC(C)C)C(=O)N[C@@H](CCC(=O)O)C(=O)NCC(=O)NCC(=O)N1CCC[C@H]1C(=O)N[C@@H](CO)C(=O)N[C@@H](CO)C(=O)NCC(=O)N[C@@H](C)C(=O)N1CCC[C@H]1C(=O)N1CCC[C@H]1C(=O)N1CCC[C@H]1C(=O)N[C@@H](CO)C(N)=O)C(C)C [Compound No. 24] (H-H[Aib]HGTFTSDYSIYLEK([εLys-εLys-γGlu-C20 diacid])QYA[Aib]EFVQWLLEGGPSSGAPPPS-NH2)	7.7	82	–	–	–	–	–	–	–
CC[C@H](C)[C@H](NC(=O)[C@H](CO)NC(=O)[C@H](Cc1ccc(O)cc1)NC(=O)[C@H](CC(=O)O)NC(=O)[C@H](CO)NC(=O)[C@@H](NC(=O)[C@H](Cc1ccccc1)NC(=O)[C@@H](NC(=O)CNC(=O)[C@H](Cc1c[nH]cn1)NC(=O)C(C)(C)NC(=O)[C@@H](N)Cc1c[nH]cn1)[C@@H](C)O)[C@@H](C)O)C(=O)N[C@@H](CC(C)C)C(=O)N[C@@H](CC(C)C)C(=O)N[C@@H](CCC(=O)O)C(=O)N[C@@H](CCCCNC(=O)[C@@H](N)CCCCNC(=O)[C@@H](N)CCCCNC(=O)CC[C@H](NC(=O)CCCCCCCCCCCCCCCCCCC(=O)O)C(=O)O)C(=O)N[C@@H](CCCCN)C(=O)N[C@@H](Cc1ccc(O)cc1)C(=O)N[C@@H](C)C(=O)NC(C)(C)C(=O)N[C@@H](CCC(=O)O)C(=O)N[C@@H](Cc1ccccc1)C(=O)N[C@H](C(=O)N[C@@H](CCC(N)=O)C(=O)N[C@@H](Cc1c[nH]c2ccccc12)C(=O)N[C@@H](CC(C)C)C(=O)N[C@@H](CC(C)C)C(=O)N[C@@H](CCC(=O)O)C(=O)NCC(=O)NCC(=O)N1CCC[C@H]1C(=O)N[C@@H](CO)C(=O)N[C@@H](CO)C(=O)NCC(=O)N[C@@H](C)C(=O)N1CCC[C@H]1C(=O)N1CCC[C@H]1C(=O)N1CCC[C@H]1C(=O)N[C@@H](CO)C(N)=O)C(C)C [Compound No. 41] (H-H[Aib]HGTFTSDYSILLEK([εLys-εLys-γGlu-C20 diacid])KYA[Aib]EFVQWLLEGGPSSGAPPPS-NH2)	9.3	69	4.3	–	–	–	–	–	–
Y[Aib]QGTFTSDYSIYLDKQAA[Aib]EFVKWLLAGGPSSGAPPPS-NH2 (not fully specified (residue 24)) [Compound No. 64]	–	–	–	45.4	174	464	–	–	–
Y[Aib]QGTFTSDYSIYLDKQAA[Aib]EFVNWLLAGGPSSGAPPPS-NH2 (not fully specified (residue 16); printed as Y-Aib-QGTFTSDYSIYLD-K[2-[2-[2-[[2-[2-[2-[[(4S)-4-carboxy-4-(17-carboxyheptadecanoylamino)butanoyl]amino]ethoxy]ethoxy]acetyl]amino]ethoxy]ethoxy]acetyl]-QAA-Aib-EFVNWLLAGGPSSGAPPPS-NH2) [Compound No. 1]	–	–	–	8.6	23.7	157	8.6	23.7	157
Y[Aib]QGTFTSDYSIYLDKQAA[Aib]EFVNWLLAGGPSSGAPPPSK(Palmitoyl)-NH2 (N-terminus assumed; SMILES CCCCCCCCCCCCCCCC(=O)NCCCC[C@H](NC(=O)[C@H](CO)NC(=O)[C@@H]1CCCN1C(=O)[C@@H]1CCCN1C(=O)[C@@H]1CCCN1C(=O)[C@H](C)NC(=O)CNC(=O)[C@H](CO)NC(=O)[C@H](CO)NC(=O)[C@@H]1CCCN1C(=O)CNC(=O)CNC(=O)[C@H](C)NC(=O)[C@H](CC(C)C)NC(=O)[C@H](CC(C)C)NC(=O)[C@H](Cc1c[nH]c2ccccc12)NC(=O)[C@H](CC(N)=O)NC(=O)[C@@H](NC(=O)[C@H](Cc1ccccc1)NC(=O)[C@H](CCC(=O)O)NC(=O)C(C)(C)NC(=O)[C@H](C)NC(=O)[C@H](C)NC(=O)[C@H](CCC(N)=O)NC(=O)[C@H](CCCCN)NC(=O)[C@H](CC(=O)O)NC(=O)[C@H](CC(C)C)NC(=O)[C@H](Cc1ccc(O)cc1)NC(=O)[C@@H](NC(=O)[C@H](CO)NC(=O)[C@H](Cc1ccc(O)cc1)NC(=O)[C@H](CC(=O)O)NC(=O)[C@H](CO)NC(=O)[C@@H](NC(=O)[C@H](Cc1ccccc1)NC(=O)[C@@H](NC(=O)CNC(=O)[C@H](CCC(N)=O)NC(=O)C(C)(C)NC(=O)[C@@H](N)Cc1ccc(O)cc1)[C@@H](C)O)[C@@H](C)O)[C@@H](C)CC)C(C)C)C(N)=O) [Compound No. 58]	–	–	–	4.1	7.2	21.2	–	–	–
Y[Aib]QGTFTSDYSIKLDKQAA[Aib]EFVNWLLAGGPSSGAPPPS-NH2 (not fully specified (residue 13)) [Compound No. 62]	–	–	–	36	65	891	–	–	–
Y[Aib]QGTFTSDYSIYKDKQAA[Aib]EFVNWLLAGGPSSGAPPPS-NH2 (not fully specified (residue 14)) [Compound No. 63]	–	–	–	25	175	1110	–	–	–
Y[Aib]QGTFTSDYSIYLDKQAAKEFVNWLLAGGPSSGAPPPS-NH2 (not fully specified (residue 20); printed as Y-Aib-QGTFTSDYSIYLDKQAA-K[2-[2-[2-[[2-[2-[2-[[(4S)-4-carboxy-4-(17-carboxyheptadecanoylamino)butanoyl]amino]ethoxy]ethoxy]acetyl]amino]ethoxy]ethoxy]acetyl]-EFVNWLLAGGPSSGAPPPS-NH2) [Compound No. 60]	–	–	–	14.9	416	182	–	–	–
Y[Aib]QGTFTSDYSIYLDKQAA[Aib]EFVNWLLAKGPSSGAPPPS-NH2 (not fully specified (residue 29)) [Compound No. 65]	–	–	–	132	56	1350	–	–	–
Y[Aib]QGTFTSDYSIYLDKQAA[Aib]EFVNWLLAGGPSSGAPPPSK-NH2 (not fully specified (residue 40)) [Compound No. 59]	–	–	–	11.7	44.5	703	–	–	–
Y[Aib]QGTFTSDYSIYLDKQAA[Aib]EFVNWLLAGGPSSGKPPPS-NH2 (not fully specified (residue 35)) [Compound No. 66]	–	–	–	12	26	1020	–	–	–
Y[Aib]QGTFTSDYSIYLDKKAA[Aib]EFVNWLLAGGPSSGAPPPS-NH2 (not fully specified (residue 17); printed as Y-Aib-QGTFTSDYSIYLDK-K[2-[2-[2-[[2-[2-[2-[[(4S)-4-carboxy-4-(17-carboxyheptadecanoylamino)butanoyl]amino]ethoxy]ethoxy]acetyl]amino]ethoxy]ethoxy]acetyl]-AA-Aib-EFVNWLLAGGPSSGAPPPS-NH2) [Compound No. 2]	–	–	–	7.1	49.8	47.6	7.1	49.8	47.6
